Experimental data: article PMC10362037
pKd: −log10 of the molar value.

Molecular target: SARS-CoV-2 Omicron (B.1.1.529) Spike S1 (Sino Biological, 40591-V08H41) (SARS-CoV-2)
Assay: SPR

Human integrin αvβ3 (R&D Systems, 3817-AV-050) (from UniProt P06756 31-1048; P05106 27-718) (complex)
pKd: 7.16
